B1: H1H27751P-N297Q (antibody, human IgG1, V domains shown)
VH: EVQLVESGGGLVQPGGSLRLSCAASGFTFSNYAMHWVRQAPGKGLEYVSAISSNGGSTYYADSVKGRITISRDNSKNTLYLQMGSLRAEDMAVYYCARGRPYYYYFGMDVWGQGTTVTVSS
VL: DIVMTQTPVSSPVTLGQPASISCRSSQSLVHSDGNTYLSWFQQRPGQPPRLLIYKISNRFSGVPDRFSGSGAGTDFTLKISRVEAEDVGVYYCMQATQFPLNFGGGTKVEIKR
notes: human IgG1 Fc with N297Q
B2: H1H27759P2-N297Q (antibody, human IgG1, V domains shown)
VH: EVQLVESGGGFVQPGGSLRLSCAASGFTFSSYAMSWVRQAPGKGLEWVSAISGTGSNTYYADSVKGRFTISRDNSKNTLYLQMNSLRAEDTAVYYCAKDRVTTVTYYFDYWGQGTLVTVSS
VL: not shown
notes: human IgG1 Fc with N297Q; also called H1H27759P-N297Q
B3: H1xH27759P2 (antibody, V domains shown)
VH: EVQLVESGGGFVQPGGSLRLSCAASGFTFSSYAMSWVRQAPGKGLEWVSAISGTGSNTYYADSVKGRFTISRDNSKNTLYLQMNSLRAEDTAVYYCAKDRVTTVTYYFDYWGQGTLVTVSS
VL: not shown
B4: H1H27762P2-N297Q (antibody, human IgG1, V domains shown)
VH: QVQLVQSGAEVKKPGSSVKVSCKASGGTFSRYDISWVRQAPGQGLEWMGGIIPIFGTSNYAQKFQGRVTITTDESTSTVYMELSSLRSEDTAVYYCARGGRYGWFDPWGQGTLVTVSS
VL: not shown
notes: human IgG1 Fc with N297Q; also called H1H27762P-N297Q
B5: H1xH29283P2 (antibody, V domains shown)
VH: QVQLVQSGTEVKKPGSSVKVSCKASGGTFSRYTFSWVRQAPGQGLEWMGGIIPIFGTTNYAQKFQGRVTITTDESTSTVYMELSSLRSEDTAVYYCTRGGRYGWFDPWGQGTLVTVSS
VL: not shown
B6: H1H27761P2-N297Q (antibody, human IgG1, V domains shown)
VH: EVQLVESGGDLVQPGGSLRLSCSASGFTFNIYAMSWVRQAPGKGLEWVSGISGSGGSTYYADSVKGRFTISRDNSKNTLYFQMNSLRVEDTAVYYCAKKISSSSYYYYAMDVWGQGTTVTVSS
VL: not shown
notes: human IgG1 Fc with N297Q; also called H1H27761P-N297Q
B7: H1H27739P-N297Q (antibody, human IgG1, V domains shown)
VH: EVQLVESGGGLVQPGGSLRLSCTASGFTFSSYAMSWVRQAPGKGLEWVSAISGTGSSTYFTDSVKGRFAISRDNSKNTLYLQMNSLRAEDTAVYYCAKDGEWLSTVTLFDYWGQGTLVTVSS
VL: EIVMTQSPATLSVSPGERATLSCRASQSVSSNLAWYQQKPGQAPRLLIYGASTRATGIPARFSGSGSGTDFTLTISSLQSEDFALYYCQQYFIWPPHPTFGPGTKVDIKR
notes: human IgG1 Fc with N297Q
B8: H2aM21229N (antibody, mouse IgG2a, V domains shown)
VH: EVQLVESGGGLVKPGGSLRLSCAASGFTFSRYSMNWVRQAPGKGLEWVSSISSSSSYIYYGDTVKGRFTISRDNAKKSLYLQMNSLRAEDTAVYYCVRDRGQLVLYFDYWGQGTLVTVSS
VL: DIQMTQSPASLSTSIRDRVTITCRASLSISSFLNWFQQRPGKAPKLLIYVASNLQSGVPSRFSDSGSGTDFTLTISSLQPEDFATYYCQQNYSTPPITFGQGTRLEIK
notes: mouse IgG2a Fc
B9: H2aM21228N (antibody, mouse IgG2a, V domains shown)
VH: VQLVESGGGLVQPGGSLRLSCAASGFTFSDHYMDWVRQAPGKGLEWVGRTRNKANSHTTEYAASVSGRFTISRDDSKNSLYLQMNSLKTEDTAVYYCTRAGIIGTLFDYWGQGTLVTVSS
VL: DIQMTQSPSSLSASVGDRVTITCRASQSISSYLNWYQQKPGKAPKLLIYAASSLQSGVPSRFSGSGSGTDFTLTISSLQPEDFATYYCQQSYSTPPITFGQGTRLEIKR
notes: mouse IgG2a Fc
B10: H2aM25695N (antibody, mouse IgG2a, V domains shown)
VH: QVQLQESGPGLVKPSETLSLTCTVTGGSISRNYWSWIRQPPGKGLEWIGYIYYSGSINYNPSLKSRVTISVDMSKNQFSLKLNSVTAADTAVYYCARDRWNWKYGMDVWGQGTTVIVSS
VL: EIVLTQSPGTLSLSPGERATLSCRASQTVRNSYLAWYHQKPGQAPRLLIYGASSRATGIPDRFSGSGSGTDFTLTISRLEPEDFAVYYCQQYGSSYWTFGQGTKMEIKR
notes: mouse IgG2a Fc
B11: H1H21234N (antibody, human IgG1, V domains shown)
VH: QVQLQESGPGLVKPSETLSLTCTVTGGSISRNYWSWIRQPPGKGLEWIGYIYYSGSIDYNPSLKSRVTISVDTSKNQFSLKLSSMTAADTAVYYCARDRWNWKYGMDVWGQGTTVIVSS
VL: EIVLTQSPGTLSLSPGERATLSCRASQTVRNNYLAWYHQKPGQAPRLLIYGASSRATGIPDRFSGSGSGTDFTLTISRLEPEDFTVYYCHQYGNSPWTFGQGTKMEIKR
notes: original human IgG1 Fc

Columns and labels:
[1] = target: T1, full length human MSR1 with a C-terminal Myc tag, on HEK293.Myc.hMSR1 cells (human, UniProt P21757 1-451); assay: cell-based or functional assay
T1 sequence (looked up): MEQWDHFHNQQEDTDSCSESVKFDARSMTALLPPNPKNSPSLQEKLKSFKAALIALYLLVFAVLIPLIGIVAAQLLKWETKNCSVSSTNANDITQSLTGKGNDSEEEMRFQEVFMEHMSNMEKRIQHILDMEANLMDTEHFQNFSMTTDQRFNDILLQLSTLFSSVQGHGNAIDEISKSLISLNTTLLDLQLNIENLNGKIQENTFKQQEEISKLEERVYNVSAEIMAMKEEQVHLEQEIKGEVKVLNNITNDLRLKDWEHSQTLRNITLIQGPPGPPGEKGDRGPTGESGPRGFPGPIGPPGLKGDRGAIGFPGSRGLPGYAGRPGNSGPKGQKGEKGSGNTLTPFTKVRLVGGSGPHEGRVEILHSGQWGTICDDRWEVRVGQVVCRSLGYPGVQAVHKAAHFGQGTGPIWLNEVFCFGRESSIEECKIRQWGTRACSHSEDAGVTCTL

[2] = target: T2, mouse MSR1 on RAW264.7 cells (mouse, UniProt P30204 1-458); assay: flow cytometry, RAW264.7 cells
T2 construct: whole, on cells; also called MSR1 positive RAW264.7 cells
T2 sequence (looked up): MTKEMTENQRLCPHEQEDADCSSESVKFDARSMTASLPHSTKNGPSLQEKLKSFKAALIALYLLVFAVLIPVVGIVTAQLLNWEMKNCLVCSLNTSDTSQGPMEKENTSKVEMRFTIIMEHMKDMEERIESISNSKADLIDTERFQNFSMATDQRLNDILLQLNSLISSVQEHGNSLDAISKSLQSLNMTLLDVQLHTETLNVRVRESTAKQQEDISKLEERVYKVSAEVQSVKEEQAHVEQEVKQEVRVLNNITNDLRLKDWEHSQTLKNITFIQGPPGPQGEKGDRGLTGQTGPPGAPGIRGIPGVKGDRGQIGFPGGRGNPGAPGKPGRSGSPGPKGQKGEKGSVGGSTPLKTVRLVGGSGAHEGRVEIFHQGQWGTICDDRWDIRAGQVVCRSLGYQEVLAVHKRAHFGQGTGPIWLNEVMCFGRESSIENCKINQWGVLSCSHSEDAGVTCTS
Procedure: To block binding to Fc receptors, RAW264.7 cells were incubated for 30 minutes at 4° C. with 500 pg/mL mouse IgG (Jackson ImmunoResearch, Cat #015-000-003) diluted in staining buffer, while B16F10.9 cells remained in staining buffer. […] The signal to noise (S/N) was determined by calculating the ratio of the anti-MSR1 antibodies or the control antibodies MFI to the unstained sample MFI (Table 11).

[3] = target: T3, full length monkey MSR1 on HEK293.mfMSR1 cells (Macaca fascicularis, UniProt A0A2K5UWE2 1-451); assay: ECL cell binding, HEK293.mfMSR1 cells, 11 nM
T3 construct: whole, on cells
T3 sequence: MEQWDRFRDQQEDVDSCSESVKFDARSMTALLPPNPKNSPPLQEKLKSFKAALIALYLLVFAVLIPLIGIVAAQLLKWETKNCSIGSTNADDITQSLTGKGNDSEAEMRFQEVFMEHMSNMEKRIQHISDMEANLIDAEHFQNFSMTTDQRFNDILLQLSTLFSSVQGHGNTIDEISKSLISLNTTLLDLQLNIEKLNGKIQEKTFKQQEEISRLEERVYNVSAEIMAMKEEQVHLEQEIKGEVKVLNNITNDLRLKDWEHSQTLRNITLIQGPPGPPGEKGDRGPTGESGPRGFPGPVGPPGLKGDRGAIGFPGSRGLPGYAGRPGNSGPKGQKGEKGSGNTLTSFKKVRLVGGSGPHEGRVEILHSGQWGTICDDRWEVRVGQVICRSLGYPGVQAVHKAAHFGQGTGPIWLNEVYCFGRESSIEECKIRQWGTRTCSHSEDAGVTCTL
Procedure: (§1) All cells were washed once with 1×PBS with Ca²⁺/Mg²⁺ and counted with a Cellometer™ Auto T4 cell counter (Nexcelom Bioscience). Approximately 1.0×10⁴ cells were seeded separately onto 96-well carbon electrode plates [MULTI-ARRAY high bind plate, Meso Scale Diagnostics] and incubated for 1 hour at 37° C. Non-specific binding sites were then blocked by 2% BSA (w/v) in PBS with Ca²⁺/Mg²⁺ for 1 hour at room temperature. THP-1 cells were pre-incubated for 0.5 hours at room temperature in sample dilution buffer with: 1) 1 mg/mL Fc receptor block reagents to block Fc gamma receptors on THP-1 cell surface [whole molecule human IgG (Jackson Immunoresearch, Cat #009-000-003) for wells being tested with anti-MSR1-mFc antibodies or 2) whole molecule mlgG (Jackson Immunoresearch, Cat #015-000-003) for wells being tested with anti-MSR1-hFc antibodies. Antibody binding on HEK293.Myc.hMSR1, HEK293.mfMSR1 and HEK293 cells was tested without Fc receptor block reagents. […] Plates were then washed to remove unbound antibodies an AquaMax2000 plate washer with a cell washing head (MDS Analytical Technologies). […] Plates were washed and developed with Read Buffer (Meso Scale Diagnostics, Cat # R92TD-2) according to manufacturer's recommended procedure and luminescent signals were recorded with a SECTOR Imager 600 (Meso Scale Diagnostics). Luminescence intensity, measured in relative light units (RLU), was recorded to indicate the binding intensity of each antibody at the range of concentrations.

[4] = target: T1, full length human MSR1 with a …; assay: ECL cell binding, HEK293.Myc.hMSR1 cells, 11 nM
Procedure: as §1

| Binder | % Inhibition of Dil-Acetylated LDL uptake [1] [%] | % Inhibition of Dil-Oxidized LDL uptake [1] [%] | IC50 of Dil-Acetylated LDL uptake inhibition [1] [nM] | IC50 of Dil-Oxidized LDL uptake inhibition [1] [nM] | MFI [2] [MFI] | S/N (MFI over unstained MFI) [2] | ratio of binding signal (RLU) to isotype control [3] [fold] | ratio of binding signal (RLU) to isotype control [4] [fold] |
| --- | --- | --- | --- | --- | --- | --- | --- | --- |
| B1 | 59 | 85 | 1.6 | 2.9 | 3820 | 1 | 49 | 63 |
| B2 | 48 | 74 | > 100 | > 10 | 3290 | 1 | 25 | 23 |
| B3 | – | – | – | – | – | – | 21 | 22 |
| B4 | 38 | 78 | 2.9 | 4 | 3520 | 1 | 25 | 33 |
| B5 | – | – | – | – | – | – | 24 | 26 |
| B6 | 29 | 43 | > 100 | 9.5 | 3840 | 1 | 15 | 23 |
| B7 | – | 55 | – | > 100 | 3270 | 1 | 20 | 22 |
| B8 | – | 26 | – | > 100 | – | – | 27 | 78 |
| B9 | 10 | 79 | > 100 | 3.1 | – | – | 60 | 66 |
| B10 | 40 | 69 | > 170 | > 16 | – | – | 45 | 35 |
| B11 | 36 | 64 | 0.71 | 4.3 | – | – | 31 | 32 |

Reference: patent US20190367631A1 (Regeneron, published 2019)
